Columns and labels:
[1] = molecular target: T1, MBD3 (Homo sapiens) (UniProt O95983); assay: competition; settings: EMSA with 32P-labeled PCR probes, binding buffer, salt, pH and temperature not in the material
T1 sequence: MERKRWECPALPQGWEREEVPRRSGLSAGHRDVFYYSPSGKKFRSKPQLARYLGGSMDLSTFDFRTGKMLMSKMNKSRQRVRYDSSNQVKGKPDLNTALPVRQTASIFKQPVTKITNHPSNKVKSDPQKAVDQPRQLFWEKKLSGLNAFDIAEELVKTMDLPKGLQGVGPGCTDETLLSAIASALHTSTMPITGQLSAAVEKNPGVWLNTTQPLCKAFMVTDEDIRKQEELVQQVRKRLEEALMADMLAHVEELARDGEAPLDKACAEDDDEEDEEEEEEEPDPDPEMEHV

[2] = molecular target: T1, MBD3 (Homo sapiens); assay: EMSA; settings: EMSA with 32P-labeled PCR probes, binding buffer, salt, pH and temperature not in the material
[3] = molecular target: T2, recombinant MKRN3 protein (GST-tagged) (human, UniProt Q13064 1-507); assay: pull-down; GST pull-down of MKRN3 protein with His6-tagged MBD3, in vitro; settings: both partners purified
T2 construct: MKRN3 (Makorin ring finger protein 3), human, E3 ubiquitin ligase; also called Makorin ring finger protein 3; source: recombinant
T2 sequence (looked up): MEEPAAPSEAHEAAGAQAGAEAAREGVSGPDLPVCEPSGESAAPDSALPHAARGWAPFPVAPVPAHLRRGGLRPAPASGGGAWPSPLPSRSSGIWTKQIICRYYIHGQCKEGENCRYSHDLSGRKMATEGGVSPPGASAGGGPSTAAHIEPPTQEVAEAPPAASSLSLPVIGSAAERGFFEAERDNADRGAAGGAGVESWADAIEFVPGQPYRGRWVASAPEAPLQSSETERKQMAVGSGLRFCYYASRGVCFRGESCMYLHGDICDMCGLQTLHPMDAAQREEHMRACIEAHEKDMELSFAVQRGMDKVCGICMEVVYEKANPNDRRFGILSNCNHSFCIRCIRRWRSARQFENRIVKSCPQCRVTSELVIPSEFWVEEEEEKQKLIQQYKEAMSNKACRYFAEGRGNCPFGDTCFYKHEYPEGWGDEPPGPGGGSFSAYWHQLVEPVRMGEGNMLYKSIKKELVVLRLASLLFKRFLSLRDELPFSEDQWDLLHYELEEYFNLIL

In the case of “TTCTTCAGCTTTGGGACTCAGACTGGCTTTCCTTGCTCCTCAGCTTGCGGACGGCCTACTGTGGGACCTTGGGATCGTGTGAGTTAATACTTAATAAACTCTCCTATGTGCGTGTGTTTGTGTGTGTGTGTGTGTGTGTATGTATTCTGTCCCTCTAGAGAATGCTGAGTAATACA (double strand) [GNRH1 promoter unmodified competitor]”, the binding [1] is reported as “binds more weakly”.

“TTCTTCAGCTTTGGGACTCAGACTGGCTTTCCTTGCTCCTCAGCTTGCGGACGGCCTACTGTGGGACCTTGGGATCGTGTGAGTTAATACTTAATAAACTCTCCTATGTGCGTGTGTTTGTGTGTGTGTGTGTGTGTGTATGTATTCTGTCCCTCTAGAGAATGCTGAGTAATACA (double strand) [GNRH1 promoter unmodified C probe]” was tested, and the binding [2] was “binds more weakly”.

In the case of “TTCTTCAGCTTTGGGACTCAGACTGGCTTTCCTTGCTCCTCAGCTTGCGGACGGCCTACTGTGGGACCTTGGGATCGTGTGAGTTAATACTTAATAAACTCTCCTATGTGCGTGTGTTTGTGTGTGTGTGTGTGTGTGTATGTATTCTGTCCCTCTAGAGAATGCTGAGTAATACA (double strand) [GNRH1 promoter 5hmC probe]”, the binding ([2]; all cytosines 5-hydroxymethylcytosine (PCR with 5hm-dCTP; primer-derived cytosines presumably unmodified)) is reported as “binds”.

With “TTCTTCAGCTTTGGGACTCAGACTGGCTTTCCTTGCTCCTCAGCTTGCGGACGGCCTACTGTGGGACCTTGGGATCGTGTGAGTTAATACTTAATAAACTCTCCTATGTGCGTGTGTTTGTGTGTGTGTGTGTGTGTGTATGTATTCTGTCCCTCTAGAGAATGCTGAGTAATACA (double strand) [GNRH1 promoter 5hmC competitor]” the binding ([1]; 5-hydroxymethylcytosine) was “binds”.

In the case of “TTCTTCAGCTTTGGGACTCAGACTGGCTTTCCTTGCTCCTCAGCTTGCGGACGGCCTACTGTGGGACCTTGGGATCGTGTGAGTTAATACTTAATAAACTCTCCTATGTGCGTGTGTTTGTGTGTGTGTGTGTGTGTGTATGTATTCTGTCCCTCTAGAGAATGCTGAGTAATACA (double strand) [GNRH1 promoter 5mC probe]”, the binding ([2]; 5-methylcytosine (PCR with 5m-dCTP; primer-derived cytosines presumably unmodified)) is reported as “no binding”.

B1: His6-tagged MBD3 (natural protein, human, UniProt O95983 1-291, looked up)
chain: MERKRWECPALPQGWEREEVPRRSGLSAGHRDVFYYSPSGKKFRSKPQLARYLGGSMDLSTFDFRTGKMLMSKMNKSRQRVRYDSSNQVKGKPDLNTALPVRQTASIFKQPVTKITNHPSNKVKSDPQKAVDQPRQLFWEKKLSGLNAFDIAEELVKTMDLPKGLQGVGPGCTDETLLSAIASALHTSTMPITGQLSAAVEKNPGVWLNTTQPLCKAFMVTDEDIRKQEELVQQVRKRLEEALMADMLAHVEELARDGEAPLDKACAEDDDEEDEEEEEEEPDPDPEMEHV
notes: MBD3, human; also called recombinant MBD3; recombinant human MBD3 protein; source: recombinant
B1: binds [3].

From article PMC8288866, “MKRN3 regulates the epigenetic switch of mammalian puberty via ubiquitination of MBD3” (National Science Review, 2020)
